Biological target: T1, full-length Ebola GP on pseudotyped lentivirus (Zaire ebolavirus, UniProt Q05320 33-676)
T1 sequence: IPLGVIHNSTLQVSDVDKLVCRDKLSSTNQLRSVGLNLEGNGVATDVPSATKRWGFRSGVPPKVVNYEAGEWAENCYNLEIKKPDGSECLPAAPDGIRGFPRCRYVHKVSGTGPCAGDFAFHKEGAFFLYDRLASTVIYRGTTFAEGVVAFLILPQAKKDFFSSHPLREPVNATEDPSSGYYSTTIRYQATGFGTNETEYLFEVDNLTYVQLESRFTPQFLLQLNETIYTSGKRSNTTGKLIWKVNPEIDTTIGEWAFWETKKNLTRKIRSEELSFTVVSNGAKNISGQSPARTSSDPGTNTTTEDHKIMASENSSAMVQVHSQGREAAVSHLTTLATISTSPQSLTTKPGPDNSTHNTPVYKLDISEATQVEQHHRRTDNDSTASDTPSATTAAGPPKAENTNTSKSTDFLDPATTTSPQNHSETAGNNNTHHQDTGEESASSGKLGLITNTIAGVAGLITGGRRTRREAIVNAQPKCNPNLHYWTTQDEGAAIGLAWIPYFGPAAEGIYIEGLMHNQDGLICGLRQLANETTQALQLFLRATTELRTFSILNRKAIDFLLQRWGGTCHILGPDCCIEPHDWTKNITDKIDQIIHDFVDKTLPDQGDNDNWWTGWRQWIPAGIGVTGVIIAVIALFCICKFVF
Assay: cell-based or functional assay

B1: mAb114 WT IgG (antibody, V domains shown)
VH: EVQLVESGGGLIQPGGSLRLSCAASGFALRMYDMHWVRQTIDKRLEWVSAVGPSGDTYYADSVKGRFAVSRENAKNSLSLQMNSLTAGDTAIYYCVRSDRGVAGLFDSWGQGILVTVSS
VL: DIQMTQSPSSLSASVGDRITITCRASQAFDNYVAWYQQRPGKVPKLLISAASALHAGVPSRFSGSGSGTHFTLTISSLQPEDVATYYCQNYNSAPLTFGGGTKVEIK
- Ebola GP pseudotyped lentivirus IC50: 1.43 nM

— patent US20250243261A1 (CZ BIOHUB SF, published 2025)
